Measured values: patent US20220249814A1, “METHODS AND DEVICES FOR TREATING A DISEASE WITH BIOTHERAPEUTICS” (PROGENITY, INC., priority 2018, published 2022)
Marks after values point to notes of the source that are not given here.

Experiments:
[1] = baseline dose, Admin. SC (Table 17); cited from earlier work
[2] = Example 3 euglycemic clamp pharmacodynamics (blood glucose, dextrose infusion rate); type: in vivo, Yorkshire female swine
Procedure: (§1) Blood samples were kept on wet ice until centrifugation and separation of plasma. […] Glucose was monitored every five (5) minutes during the study by portable glucose analyzer (StatStrip (SS) hospital glucose monitoring system (Nova Biomedical, Waltham, Mass.)). At each time point, approximate 0.1 mL of blood was drawn and immediately placed on a glucose monitoring test strip, and the whole blood glucose concentration was measured by the SS in triplicate.
A euglycemic clamp procedure (ECP) was employed to compare pharmacokinetics and pharmacodynamics of regular human Insulin (NOVOLIN® R) delivered subcutaneously (SC) in the neck versus intra-jejunally (IJ) by the jet delivery device in the small intestine. ECP was used to quantify the amount of glucose required to maintain normoglycemia after exogenous bolus of insulin. […] The animals were anesthetized for the entire ECP.

[3] = Example 3 blood insulin pharmacokinetics after SC or intra-jejunal jet delivery; type: in vivo, Yorkshire female swine
Procedure: A total of 18 Yorkshire female swine in good health and weighing 60-70 kg each were included in this study. Swine were divided into two groups with 9 animals per group. […] A sham surgical laparotomy was performed. […] The jet delivery device was configured with the single nozzle in an axial orientation.
Swine were divided into two groups with 9 animals per group. […] In all 18 animals, a laparotomy procedure was performed to expose the abdominal cavity. Animals remained under anesthesia during the entire procedure for the PK/PD study.
For the laparotomy in group 02, a small segment of the jejunal mucosa and serosa was exposed by midline laparotomy and the jet delivery device was inserted through antimesenteric incision.
as §1
The animals were anesthetized for the entire ECP.

[4] = Example 6 dulaglutide plasma pharmacokinetics, ID via 2-nozzle device vs IV vs SC; type: in vivo, female Yorkshire pigs (Sus scrofa domesticus)
Text: The study design is shown below in Table 35.
Blood samples were kept on wet ice until centrifugation. […] All samples were maintained chilled throughout processing.

[5] = IJ administration by jet delivery device (~40 U), Average of animals
[6] = IJ administration by jet delivery device (~40 U), animal 18P17
[7] = IJ administration by jet delivery device (~40 U), animal 18P22
[8] = IJ administration by jet delivery device (~40 U), animal 18P23
[9] = IJ administration by jet delivery device (~40 U), animal 18P25
[10] = IJ administration by jet delivery device (~40 U), animal 18P28
[11] = IJ administration by jet delivery device (~40 U), animal 18P33
[12] = IJ administration by jet delivery device (~40 U), animal 18P36
[13] = SC administration, animal 18P15
[14] = SC administration, animal 18P16
[15] = SC administration, animal 18P19
[16] = SC administration, animal 18P20
[17] = SC administration, animal 18P34
[18] = SC administration, animal 18P35
[19] = ID via ingestible device, 320 psig

For glucagon, the Bioavail. [1] is listed as 100.0%.

For “Novolin® R: regular human insulin (NOVOLIN® R)”, the “mean dextrose infusion rate, IJ vs SC group” value ([2]; first 70 minutes after administration) was “higher in the IJ administration group”, the “mean dextrose infusion rate, IJ vs SC group” value ([2]; from 75 minutes to 420 minutes post-administration) was “higher in the SC administration group” and the “AUC of blood insulin, SC vs IJ group” value ([3]; AUC0-420 min) was “higher than that of the IJ administration group”. For the same molecule, the Cmax blood insulin [3, 5] was 77.40 uIU/mL, the Tmax blood insulin [3, 5] was 55.63 min and the Cmax blood insulin ([3]; IJ administration by jet delivery device (~40 U), animal 18P14) was 96.77 uIU/mL. For the same molecule, the Cmax blood insulin [3, 6] was 5.03 uIU/mL, the Tmax blood insulin [3, 6] was 50 min and the Cmax blood insulin [3, 7] was 7.96 uIU/mL. For the same molecule, the Tmax blood insulin [3, 7] was 90 min, the Cmax blood insulin [3, 8] was 48.77 uIU/mL and the Tmax blood insulin [3, 8] was 40 min. The Cmax blood insulin [3, 9] was 40.93 uIU/mL, the Tmax blood insulin [3, 9] was 20 min and the Cmax blood insulin [3, 10] was 85.38 uIU/mL. It also gave a Tmax blood insulin [3, 10] of 40 min, a Cmax blood insulin [3, 11] of 207.96 uIU/mL and a Tmax blood insulin [3, 11] of 40 min. For the same molecule, the Cmax blood insulin [3, 12] was 126.39 uIU/mL, the Tmax blood insulin [3, 12] was 90 min and the Cmax blood insulin [3, 13] was 451.00 uIU/mL. The Tmax blood insulin [3, 13] was 50 min, the Cmax blood insulin [3, 14] was 60.74 uIU/mL and the Tmax blood insulin [3, 14] was 180 min. For the same molecule, the Cmax blood insulin [3, 15] was 354.00 uIU/mL, the Tmax blood insulin [3, 15] was 105 min and the Cmax blood insulin [3, 16] was 356.60 uIU/mL. The Tmax blood insulin [3, 16] was 30 min, the Cmax blood insulin ([3]; SC administration, animal 18P21) was 65.71 uIU/mL and the Cmax blood insulin [3, 17] was 59.18 uIU/mL. For the same molecule, the Tmax blood insulin [3, 17] was 120 min, the Cmax blood insulin [3, 18] was 73.34 uIU/mL and the Tmax blood insulin [3, 18] was 50 min. The “maximum plasma concentration Cmax, SC vs IJ group” value ([3]; in vivo, sc) was “higher than that of the IJ administration group”.

In the case of dulaglutide, the Tmax ([4]; ID via 2-nozzle device 320 psig, 1.2 mg, swine plasma) is reported as 480 min, the “(AUC)T0-T240 h ± SEM” value ([4]; ID via 2-nozzle device 320 psig, 1.2 mg, one animal below detection limit excluded (N=4)) is reported as 4355.86 ± 1094.57 ^a ng · hr/mL and the “bioavailability relative to IV administration [(AUC)ID/IV*100%]” value [4, 19] is reported as “about 33%”. For the same molecule, the “bioavailability relative to SC administration [(AUC)ID/SC*100%]” value [4, 19] was “about 61%”, the “AUCID (ng·hr/mL±SEM)” value ([4]; ID via ingestible device, 320 psig, 1.2 mg, prior to exclusion of animal no. 8487, ±SEM) was 3890.00 ± 94.73 ng·h/mL and the “(AUC)T0-T240 h ± SEM” value ([4]; IV, 1.2 mg) was 16429.33 ± 600.93 ng·h/mL. The “(AUC)T0-T240 h ± SEM” value ([4]; SC, 1.2 mg) was 8869 ± 887.33 ng·h/mL and the “plasma level of dulaglutide” value ([4]; one animal in Group 1 (no. 8487; ID)) was “below the limit of detection of the ELISA assay”.

In the case of somatropin, the Bioavail. [1] is listed as 80.5%.

B1: concizumab (antibody, chains of the INN, looked up, V domains shown)
VH: EVQLVESGGGLVKPGGSLRLSCAASGFTFSNYAMSWVRQTPEKRLEWVATISRSGSYSYFPDSVQGRFTISRDNAKNSLYLQMNSLRAEDTAVYYCARLGGYDEGDAMDSWGQGTTVTVSS
VL: DIVMTQTPLSLSVTPGQPASISCKSSQSLLESDGKTYLNWYLQKPGQSPQLLIYLVSILDSGVPDRFSGSGSGTDFTLKISRVEAEDVGVYYCLQATHFPQTFGGGTKVEIK
In the case of B1, the Bioavail. [1] is given as 93.0%.
